These are literature values, as cited in PMC6995517.

The data set addresses transferrin receptor (TfR) (Homo sapiens) (UniProt P02786).

Chain of transferrin receptor (TfR) (Homo sapiens) (P02786 89-760): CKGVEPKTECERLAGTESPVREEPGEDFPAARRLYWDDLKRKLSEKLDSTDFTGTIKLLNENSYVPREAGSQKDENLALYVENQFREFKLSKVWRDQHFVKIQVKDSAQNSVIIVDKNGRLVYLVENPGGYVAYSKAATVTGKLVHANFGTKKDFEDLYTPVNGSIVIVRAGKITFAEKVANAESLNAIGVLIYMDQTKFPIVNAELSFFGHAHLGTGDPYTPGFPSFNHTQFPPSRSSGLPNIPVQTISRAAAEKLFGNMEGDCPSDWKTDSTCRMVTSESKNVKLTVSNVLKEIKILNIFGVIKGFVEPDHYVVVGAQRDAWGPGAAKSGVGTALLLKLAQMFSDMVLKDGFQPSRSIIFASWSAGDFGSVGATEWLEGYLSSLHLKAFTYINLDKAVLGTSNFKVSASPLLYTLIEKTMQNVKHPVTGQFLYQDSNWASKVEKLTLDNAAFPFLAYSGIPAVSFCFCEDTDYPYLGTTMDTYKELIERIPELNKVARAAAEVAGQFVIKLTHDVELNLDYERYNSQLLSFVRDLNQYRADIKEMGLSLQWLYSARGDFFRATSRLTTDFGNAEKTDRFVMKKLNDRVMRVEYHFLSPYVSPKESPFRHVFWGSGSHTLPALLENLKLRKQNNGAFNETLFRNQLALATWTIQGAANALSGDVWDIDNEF

As to T7 peptide, the Kd is 10 nM.
